Results from US20240000840A1.

Molecular target: CD20 on CD20+ human Burkitt's lymphoma cell lines (Ramos, Raji) (human) (UniProt P11836)
Assay: cell-based or functional assay

Sequence of UniProt P11836 (P11836 whole entry): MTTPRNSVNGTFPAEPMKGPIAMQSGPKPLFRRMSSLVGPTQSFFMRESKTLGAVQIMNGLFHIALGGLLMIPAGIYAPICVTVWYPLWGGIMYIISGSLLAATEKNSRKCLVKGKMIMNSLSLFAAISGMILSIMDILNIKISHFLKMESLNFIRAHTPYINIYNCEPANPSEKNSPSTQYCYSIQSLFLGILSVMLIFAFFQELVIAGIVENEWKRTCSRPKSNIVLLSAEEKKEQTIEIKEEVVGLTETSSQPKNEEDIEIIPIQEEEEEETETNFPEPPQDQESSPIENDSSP

## Rituximab (Mabthera or Rituxan) (antibody)
  % of Raji alive, AB-101 + RTX, 24 h, batch 19AB101PN001: 13.8%
  % of Raji alive, AB-101 + RTX, 24 h, batch 19AB101PN004: 21.1%
  % of Raji alive, AB-101 + RTX, 24 h, batch 19AB101PN005: 34.1%
  % of Raji alive, AB-101 + RTX, 24 h, batch 20AB101PG001: 25.8%
  % of Raji alive, AB-101 + RTX, 24 h, batch 20AB101PG002: 14.3%
  % of Raji alive, AB-101 + RTX, 24 h, batch 20AB101PN001: 16.8%
  % of Raji alive, AB-101 + RTX, 24 h, batch 20AB101PN002: 26.6%
  % of Raji alive, AB-101 + RTX, 24 h, batch 20AB101PN003: 28.4%
  % of Raji alive, AB-101 + RTX, 24 h, batch 20AB101PN004: 34.3%
  % of Raji alive, AB-101 + RTX, 48 h, batch 19AB101PN001: 6.6%
  % of Raji alive, AB-101 + RTX, 48 h, batch 19AB101PN004: 8.9%
  % of Raji alive, AB-101 + RTX, 48 h, batch 19AB101PN005: 18.6%
  % of Raji alive, AB-101 + RTX, 48 h, batch 20AB101PG001: 11.7%
  % of Raji alive, AB-101 + RTX, 48 h, batch 20AB101PG002: 5.5%
  % of Raji alive, AB-101 + RTX, 48 h, batch 20AB101PN001: 9.2%
  % of Raji alive, AB-101 + RTX, 48 h, batch 20AB101PN002: 12.5%
  % of Raji alive, AB-101 + RTX, 48 h, batch 20AB101PN003: 13.3%
  % of Raji alive, AB-101 + RTX, 48 h, batch 20AB101PN004: 18.6%
  % of Raji alive, AB-101 + RTX, 72 h, batch 19AB101PN001: 4.5%
  % of Raji alive, AB-101 + RTX, 72 h, batch 19AB101PN004: 9.4%
  % of Raji alive, AB-101 + RTX, 72 h, batch 19AB101PN005: 11.5%
  % of Raji alive, AB-101 + RTX, 72 h, batch 20AB101PG001: 9.6%
  % of Raji alive, AB-101 + RTX, 72 h, batch 20AB101PG002: 3.6%
  % of Raji alive, AB-101 + RTX, 72 h, batch 20AB101PN001: 7.5%
  % of Raji alive, AB-101 + RTX, 72 h, batch 20AB101PN002: 13.9%
  % of Raji alive, AB-101 + RTX, 72 h, batch 20AB101PN003: 12.3%
  % of Raji alive, AB-101 + RTX, 72 h, batch 20AB101PN004: 18.3%
  % of Ramos alive, AB-101 + RTX, 24 h, AVE of 9 batches (raw data table; differs from 47.6 in Table 26): 47.9%
  % of Ramos alive, AB-101 + RTX, 24 h, batch 19AB101PN001: 29.5%
  % of Ramos alive, AB-101 + RTX, 24 h, batch 19AB101PN004: 37.1%
  % of Ramos alive, AB-101 + RTX, 24 h, batch 19AB101PN005: 59.7%
  % of Ramos alive, AB-101 + RTX, 24 h, batch 20AB101PG001: 54.1%
  % of Ramos alive, AB-101 + RTX, 24 h, batch 20AB101PG002: 22.1%
  % of Ramos alive, AB-101 + RTX, 24 h, batch 20AB101PN001: 46.2%
  % of Ramos alive, AB-101 + RTX, 24 h, batch 20AB101PN003: 57.7%
  % of Ramos alive, AB-101 + RTX, 24 h, batch 20AB101PN004: 54.8%
  % of Ramos alive, AB-101 + RTX, 48 h, batch 19AB101PN001: 12.1%
  % of Ramos alive, AB-101 + RTX, 48 h, batch 19AB101PN004: 18.6%
  % of Ramos alive, AB-101 + RTX, 48 h, batch 19AB101PN005: 38.1%
  % of Ramos alive, AB-101 + RTX, 48 h, batch 20AB101PG001: 37.4%
  % of Ramos alive, AB-101 + RTX, 48 h, batch 20AB101PG002: 7.7%
  % of Ramos alive, AB-101 + RTX, 48 h, batch 20AB101PN001: 22.8%
  % of Ramos alive, AB-101 + RTX, 48 h, batch 20AB101PN002: 53%
  % of Ramos alive, AB-101 + RTX, 48 h, batch 20AB101PN003: 34.4%
  % of Ramos alive, AB-101 + RTX, 48 h, batch 20AB101PN004: 29.2%
  % of Ramos alive, AB-101 + RTX, 72 h, batch 19AB101PN001: 6.6%
  % of Ramos alive, AB-101 + RTX, 72 h, batch 19AB101PN004: 11.4%
  % of Ramos alive, AB-101 + RTX, 72 h, batch 19AB101PN005: 30.9%
  % of Ramos alive, AB-101 + RTX, 72 h, batch 20AB101PG001: 23.5%
  % of Ramos alive, AB-101 + RTX, 72 h, batch 20AB101PG002: 4.1%
  % of Ramos alive, AB-101 + RTX, 72 h, batch 20AB101PN001: 11%
  % of Ramos alive, AB-101 + RTX, 72 h, batch 20AB101PN002: 40.3%
  % of Ramos alive, AB-101 + RTX, 72 h, batch 20AB101PN003: 21.8%
  % of Ramos alive, AB-101 + RTX, 72 h, batch 20AB101PN004: 21.3%
  Viable Raji cells (%), AB-101 + RTX, 24 hrs, mean of 9 AB-101 batches (long-term ADCC, IncuCyte): 23.9%
  Viable Raji cells (%), AB-101 + RTX, 48 hrs, mean of 9 AB-101 batches (long-term ADCC, IncuCyte): 11.7%
  Viable Raji cells (%), AB-101 + RTX, 72 hrs, mean of 9 AB-101 batches (long-term ADCC, IncuCyte): 10.1%
  Viable Ramos cells (%), AB-101 + RTX, 24 hrs, mean of 9 AB-101 batches (long-term ADCC, IncuCyte): 47.6%
  Viable Ramos cells (%), AB-101 + RTX, 48 hrs, mean of 9 AB-101 batches (long-term ADCC, IncuCyte): 28.1%
  Viable Ramos cells (%), AB-101 + RTX, 72 hrs, mean of 9 AB-101 batches (long-term ADCC, IncuCyte): 19%
  lysis of target cells (Raji), AB-101 combined with rituximab, end of the 72 hour co-culture, E:T 1:1 (live-cell analysis, Example 9): 90%
  lysis of target cells (Ramos), AB-101 combined with rituximab, end of 72 hrs co-culture, E:T 1:1 (live-cell analysis, Example 9): 80%
